The chains are these.
B1: S2G1 (scFv)
scFv: QMQLVQSGAEVKKPGSSVKVSCKTSGGTFGSSAIHWVRQAPRQGLEWMGRINPVLGTTNYTQKFHDRLTITADESTTTAYMELRSLRSDDTAVYYCAREGIPMIWGQGTMVTVSSGGGGSGGGGSGGGGSDIQMTQSPSSLSASVGDRVTITCRASQGIHNWLNWYQQKPGKAPKLLIYAASNRASGVPSRFSGSGSGTDFTLTISSLQPEDFATYYCQQSGKQPVTFGQGTKVEIK
notes: also called 克隆S2G1
B2: S2B8 (scFv)
scFv: QVQLVESGGGLVKPGGSLRLSCAVSGFTFSRHSMNWVRQAPGKGLEWVSSISSGSSNIYYADSVKGRFTISRDNAKNSLYLQMNSLRDEDTAVYYCARGGLGPEYLQHWGQGTLVTVSSGGGGSGGGGSGGGGSSSELTQPASVSGSPGQSITISCTGTSSDIGDNNFVSWYQQYPGKAPKLMIYDVSNRPSGVSNRFSGSKSGNTASLTISGLQAEDEADYYCSSYTSSSTLVFGGGTKVTVLG
notes: also called 克隆S2B8
B3: S3A12 (scFv)
scFv: QVQLVQSGAEVKKPGASVKVSCKASGYAIYNYGISWVRQAPGQGLEWMGWVSYFGGSTTYAQKLQGRGTMTTDPSTSTAYMELRSLRSDDTAVYYCAKGYGMEIWGQGTTVSSGGGGSGGGGSGGGGSDIQMTQSPSSLSASVGDRVTITCRASQNVNNWLDWYQQKPGKAPKLLIYAASTRASGVPSRFSGSGSGTDFTLTISSLQPEDFATYYCQQDRDVPVTFGQGTKVEIK
notes: also called 克隆S3A12
B4: S2F5 (scFv)
scFv: QVQLVQSGAEVKKPGSSVKVSCKASGGTFTGYSIHWVRQAPGQGLEWMGWINPISGSANYAQKFQGRVTITADKSTSTAYMELSSLRSEDTAVYYCARTQNNTGYRGTDYWGQGTLVTVSSGGGGSGGGGSGGGSDIQMTQSPSSLSASVGDRVTITCRASQSVSSYLNWYQQKPGKAPKLLIYGASTRPSGVPSRFSGSGSGTDFTLTISSLQPEDFATYYCQQHADTPTTFGQGTKVEIK
notes: also called 克隆S2F5
B5: H4H4-IgG4 (antibody, V domains shown)
VH: QVQLVQSGAEVKKPGASVKVSCKASGYAIYNYGISWVRQAPGQGLEWMGWVSFYNGNTNYAQKLQGRGTMTTDPSTSTAYMELRSLRSDDTAVYYCARGYVMDIWGQGTTVTVSS
VL: DIQMTQSPSSLSASVGDRVTITCRASQSINNWLDWYQQKPGKAPKLLIYAASTRPSGVPSRFSGSGSGTDFTLTISSLQPEDFATYYCQQDQDIPPTFGQGTKVEIKR
B6: H8A7-IgG4 (antibody, V domains shown)
VH: B5 VH with I104F
VL: B5 VL
B7: H8F4-IgG4 (antibody, V domains shown)
VH: B5 VH with I29L
VL: B5 VL
B8: H7B12-IgG4 (antibody, V domains shown)
VH: B5 VH with A28T, I29L, Y30N
VL: B5 VL
B9: Alirocumab (antibody, V domains shown)
VH: EVQLVESGGGLVQPGGSLRLSCAASGFTFNNYAMNWVRQAPGKGLDWVSTISGSGGTTNYADSVKGRFIISRDSSKHTLYLQMNSLRAEDTAVYYCAKDSNWGNFDLWGRGTLVTVSS
VL: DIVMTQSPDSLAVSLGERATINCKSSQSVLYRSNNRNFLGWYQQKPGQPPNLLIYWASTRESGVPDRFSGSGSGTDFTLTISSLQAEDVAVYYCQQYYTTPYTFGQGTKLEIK

Where a chain is given by its changes, count along the chain named.

The source of these data is CN105348390A (BEIJING WISDOMAB BOITECHNOLOGY CO LTD, dated 2016).

For the first assay, the target named is T1, 重组huPCSK9-his (人PCSK9, C端His-tag) (human, UniProt Q8NBP7 54-692).
T1 construct: Expressed in HEK293 cells; not shown: C-terminal His-tag
T1 sequence (Q8NBP7 other isoform, or with tags, fused parts or gaps): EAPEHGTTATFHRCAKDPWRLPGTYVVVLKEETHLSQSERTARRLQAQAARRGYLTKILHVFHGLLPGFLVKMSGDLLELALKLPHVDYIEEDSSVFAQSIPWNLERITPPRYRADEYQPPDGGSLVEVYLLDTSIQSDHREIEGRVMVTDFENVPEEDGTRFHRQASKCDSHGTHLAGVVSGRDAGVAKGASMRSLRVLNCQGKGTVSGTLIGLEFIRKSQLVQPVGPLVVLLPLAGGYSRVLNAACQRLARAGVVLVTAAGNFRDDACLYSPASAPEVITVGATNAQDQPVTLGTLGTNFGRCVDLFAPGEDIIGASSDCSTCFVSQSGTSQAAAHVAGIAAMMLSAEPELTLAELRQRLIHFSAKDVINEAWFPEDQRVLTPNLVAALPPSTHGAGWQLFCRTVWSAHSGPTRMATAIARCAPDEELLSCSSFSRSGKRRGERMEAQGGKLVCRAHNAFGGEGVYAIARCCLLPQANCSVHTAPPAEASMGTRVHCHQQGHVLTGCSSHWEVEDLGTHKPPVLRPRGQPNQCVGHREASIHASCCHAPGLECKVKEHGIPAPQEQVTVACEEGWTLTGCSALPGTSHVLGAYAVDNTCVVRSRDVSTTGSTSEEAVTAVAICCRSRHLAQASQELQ
As to the kind of experiment: solid-phase panning of scFv phage library on huPCSK9-his.
Turning to B1, the binding result is reported as “binds”.
As to B2, the binding result is reported as “binds”.
Same read-out and setting: for B3 the value was “binds”.
Same read-out and setting: for B4 the value was “binds”.

Another assay addresses T1, 重组huPCSK9-his (人PCSK9, C端His-tag). As to the kind of experiment: SPR, Biacore 3000, antibody captured by anti-human Fc on CM5, huPCSK9 as analyte. In general terms: Surface plasmon resonance follows binding to a sensor surface in real time, without labels.
As a reminder, the Kd is the free concentration of one partner at which half of the binding sites on the other are occupied at equilibrium, for simple one-to-one binding. High values mean a looser complex, low ones a tighter complex. As usually defined, the koff is a measure of how fast the partners let go of each other. A lower koff goes with slow dissociation. What is called kon is the rate constant with which the complex forms. Read a high kon as fast association. B5 returned a Kd of 0.0659 nM, a dissociation rate constant (koff) of 4.7e-05 s⁻¹ and a kon of 714000 M⁻¹ s⁻¹.
For the molecule B6, binding was put at a Kd of 0.0648 nM, the koff was 4.83e-05 s⁻¹ and the association rate constant (kon) was determined as 746000 M⁻¹ s⁻¹.
The corresponding values for B7 are 0.0675 nM, 4.48e-05 s⁻¹ and 663000 M⁻¹ s⁻¹.
In turn, B8 came in with a Kd of 0.0323 nM, a koff of 3.26e-05 s⁻¹ and a kon of 1.01e+06 M⁻¹ s⁻¹.
The corresponding values for B9 are 0.0677 nM, 0.000154 s⁻¹ and 2.27e+06 M⁻¹ s⁻¹.
